Assay results from patent publication US20040077535A1 (Takeda / Millennium, published 2004).

Experiments:
[1] = target: T1, G protein-coupled receptor protein ZAQ (human, UniProt Q8TCW9 1-393); assay: displacement of 125I-MIT1 from ZAQC-B1 CHO cell membrane fraction, glass fiber filter binding assay
T1 construct: Stably expressed in CHO/dhfr- cells (clone ZAQC-B1); Whole cells in the FLIPR assays; also called ZAQ receptor; ZAQC-B1 cells

[2] = target: T1, G protein-coupled receptor protein ZAQ; assay: cell-based or functional assay
[3] = target: T2, human type I5E receptor protein (human, UniProt Q8NFJ6 1-384); assay: displacement of 125I-MIT1 from I5E-4 CHO cell membrane fraction, glass fiber filter binding assay
T2 construct: Stably expressed in CHO/dhfr- cells (clone I5E-4); Whole cells in the FLIPR assays; also called ISE receptor; I5E-4 cell
T2 sequence (Q8NFJ6 whole entry): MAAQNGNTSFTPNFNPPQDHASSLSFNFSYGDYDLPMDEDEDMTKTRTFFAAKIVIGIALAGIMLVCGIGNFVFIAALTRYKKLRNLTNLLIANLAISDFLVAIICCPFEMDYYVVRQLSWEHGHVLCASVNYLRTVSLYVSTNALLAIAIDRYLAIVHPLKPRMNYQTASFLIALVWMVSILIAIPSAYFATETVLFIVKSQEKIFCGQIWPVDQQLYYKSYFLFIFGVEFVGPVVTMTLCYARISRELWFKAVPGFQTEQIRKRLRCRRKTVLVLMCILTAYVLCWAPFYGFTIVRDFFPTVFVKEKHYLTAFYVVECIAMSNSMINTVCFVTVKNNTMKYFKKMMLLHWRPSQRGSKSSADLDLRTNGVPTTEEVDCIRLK

T1 sequence (Q8TCW9 whole entry): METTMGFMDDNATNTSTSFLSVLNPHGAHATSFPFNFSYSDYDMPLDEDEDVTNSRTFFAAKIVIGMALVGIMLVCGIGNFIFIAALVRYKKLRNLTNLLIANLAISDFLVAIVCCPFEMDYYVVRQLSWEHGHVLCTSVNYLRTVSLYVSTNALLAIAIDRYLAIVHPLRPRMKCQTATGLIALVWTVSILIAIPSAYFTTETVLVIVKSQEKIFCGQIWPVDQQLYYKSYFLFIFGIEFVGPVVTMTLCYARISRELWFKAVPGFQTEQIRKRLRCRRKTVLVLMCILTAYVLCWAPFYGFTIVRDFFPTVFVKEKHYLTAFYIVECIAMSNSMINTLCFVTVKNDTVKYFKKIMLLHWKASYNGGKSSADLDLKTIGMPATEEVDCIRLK

B1: human type ZAQ ligand mature peptide (type G, 86 amino acid residues) (ligand)
peptide: AVITGACERDVQCGAGTCCAISLWLRGLRMCTPLGREGEECHPGSHKVPFFRKRKHHTCPCLPNLLCSRFPDGRYRCSMDLKNINF
notes: also called human type ZAQ ligand peptide; ZAQL-1
- IC50 [1]: 0.035 nM
- increase of the intracellular calcium ion concentration (FLIPR), EC50 [2]: 0.096 nM
- IC50 [3]: 0.093 nM

B2: snake venom Mamba Intestinal Toxin 1 (MIT1) (ligand)
peptide: AVITGACERDLQCGKGTCCAVSLWIKSVRVCTPVGTSGEDCHPASHKIPFSGQRMHHTCPCAPNLACVQTSPKKFKCLSK
notes: also called snake venom MIT1; non-labeled MIT1
- IC50 [1]: 0.038 nM
- IC50 [3]: 0.032 nM
